Assay results as given in patent US8106154B2, “Nitrogen-based linkers for attaching modifying groups to polypeptides and other macromolecules” (Affymax, Inc., priority 2007, dated 2012).

Experiments:
Type in all cases: cell-based
[1] = test system: primary human bone marrow pluripotent stem cells
Protocol: EPO-R signaling stimulates the differentiation of bone marrow stem cells into proliferating red blood cell presursors. This assay measured the ability of test peptides to stimulate the proliferation and differentiation of red blood cell precursors from primary human bone marrow pluripotent stem cells. Test peptides were added to cultures of human bone marrow cells, and the cells are incubated for 16 days. Thereafter, the number of red blood cell colonies were counted. The concentration of test peptide at which the number of formed colonies is 90% of maximum, relative to that observed with EPO, was recorded as the EC90.

human EPO-R [2] = target: T1, human EPO-R (Homo sapiens, UniProt P19235); test: Reporter assay (fos promoter-driven luciferase); details: murine pre-B-cell line expressing human EPO-R with luciferase reporter; 4 hr incubation; half-maximal relative to EPO
T1 construct: expressed in transfected cells; host or cells: murine pre-B-cell line
T1 sequence (P19235 25-508): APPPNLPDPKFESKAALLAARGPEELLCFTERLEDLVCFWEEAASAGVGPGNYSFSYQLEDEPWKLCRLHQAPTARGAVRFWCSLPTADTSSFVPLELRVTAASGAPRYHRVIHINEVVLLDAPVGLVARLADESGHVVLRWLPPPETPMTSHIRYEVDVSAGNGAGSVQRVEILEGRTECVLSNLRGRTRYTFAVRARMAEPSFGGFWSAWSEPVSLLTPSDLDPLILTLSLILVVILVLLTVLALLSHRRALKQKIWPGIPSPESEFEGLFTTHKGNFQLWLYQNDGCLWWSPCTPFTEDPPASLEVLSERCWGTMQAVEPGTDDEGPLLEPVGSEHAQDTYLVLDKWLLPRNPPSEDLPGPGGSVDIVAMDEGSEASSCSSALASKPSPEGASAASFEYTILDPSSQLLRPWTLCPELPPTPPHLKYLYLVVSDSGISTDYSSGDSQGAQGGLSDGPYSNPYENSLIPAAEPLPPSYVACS
Description: This assay was based upon a murine pre-B-cell line transfected to express human EPO-R and further transfected with a fos promoter-driven luciferase reporter gene construct. Upon exposure to EPO or another EPO-R agonist, such cells respond by synthesizing luciferase. Luciferase causes the emission of light upon addition of its substrate luciferin. Thus, the level of EPO-R activation in such cells may be quantitated via measurement of luciferase activity.
The activity of a test peptide was measured by adding serial dilutions of the test peptide to cells, which were then incubated for 4 hr. After incubation, luciferin substrate was added to the cells, and light emission was measured. The concentration of test peptide that results in a half-maximal emission of light, relative to that observed with EPO, was recorded as the EC50.

human EPO-R [3] = target: T1, human EPO-R; test: Proliferation assay (MTT); details: murine pre-B-cell line expressing human EPO-R, 48 hours incubation, half-maximal relative to EPO
Protocol: This assay was based upon a murine pre-B-cell line transfected to express human EPO-R. Proliferation of this cell line is dependent on EPO-R activation. The degree of cell proliferation was quantitated using MTT, where the signal in the MTT assay is proportional to the number of viable cells. The activity of a test peptide was measured by adding serial dilutions of the test peptide to cells, which were then incubated for 48 hours. After incubation, MTT was added to the cells, and absorbance was measured. The concentration of test peptide that results in a half-maximal absorbance, relative to that observed with EPO, was recorded as the EC50.

Row | Molecule | EC90 [1] [nM] | EC50 (human EPO-R [2]) [nM] | EC50 (human EPO-R [3]) [nM]
1 | CC[C@H](C)[C@@H]1NC(=O)[C@@H]2CCCN2C(=O)CNC(=O)[C@H](CCSC)NC(=O)[C@H](Cc2c[nH]cn2)NC(=O)[C@@H](NC(=O)[C@H](C)NC(=O)[C@H](Cc2ccc(O)cc2)NC(=O)[C@H](CC(C)C)NC(=O)CNC(=O)CNC(C)=O)CSSC[C@@H](C(=O)N[C@@H](CCC(N)=O)C(=O)N2CCC[C@H]2C(=O)N[C@@H](CC(C)C)C(=O)N[C@@H](CCCNC(=N)N)C(=O)N(C)CC(=O)N[C@@H](CCCCNC(=O)CN(CC(=O)NCCCC[C@H](NC(=O)CN(C)C(=O)[C@H](CCCNC(=N)N)NC(=O)[C@H](CC(C)C)NC(=O)[C@@H]2CCCN2C(=O)[C@H](CCC(N)=O)NC(=O)[C@@H]2CSSC[C@H](NC(=O)[C@H](C)NC(=O)[C@H](Cc3ccc(O)cc3)NC(=O)[C@H](CC(C)C)NC(=O)CNC(=O)CNC(C)=O)C(=O)N[C@@H](Cc3c[nH]cn3)C(=O)N[C@@H](CCSC)C(=O)NCC(=O)N3CCC[C@H]3C(=O)N[C@@H]([C@@H](C)CC)C(=O)N[C@@H]([C@@H](C)O)C(=O)N[C@@H](Cc3cccc4ccccc34)C(=O)N[C@@H](C(C)C)C(=O)N2)C(N)=O)C(=O)CCCC(=O)N(CCN)CCN)C(N)=O)NC(=O)[C@H](C(C)C)NC(=O)[C@H](Cc2cccc3ccccc23)NC(=O)[C@H]([C@@H](C)O)NC1=O [Example 8 peptide (non-PEGylated)] | 0.026 |  | 
2 | Compound V: As Example 10 but peptide monomer Ac-GGLYACHYGPIT(Nal)VCQPLR(MeG)K, SEQ ID NO: 23 (GGLYACHYGPITXVCQPLRXK; not fully specified; conjugate chemistry not built) |  | 0.69 | 0.44
